Target: T1, HSC-F (cynomolgus monkey, UniProt Q95LI8 22-171; Q95LI7 23-181)
T1 chain: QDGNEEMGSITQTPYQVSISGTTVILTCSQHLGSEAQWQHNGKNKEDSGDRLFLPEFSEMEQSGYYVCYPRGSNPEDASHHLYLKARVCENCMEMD
Test: FACS binding; second row printed H4L1; graph legend indicates H4L3

B1: bsIgG1-huCD3-H4L1xHER2-LFLEDA (bispecific antibody, V domains shown)
VH 1: EVKLVESGGGLVKPGRSLRLSCAASGFTFNTYAMNWVRQAPGKGLEWVARIRSKYNNYATYYADSVKDRFTISRDDSKSILYLQMNSLKTEDTAMYYCVRHGNFGNSYVSWFAYWGQGTMVTVSS
VL 1: QAVVTQEPSFSVSPGGTVTLTCRSSTGAVTTSNYANWVQQTPGQAFRGLIGGTNKRAPGVPARFSGSILGNKAALTITGAQADDESDYYCALWYSNLWVFGGGTKLTVL
VH 2: QVQLVQSGAEVKKPGASVKVSCKASGYTFTNYGISWVRQAPGQGLEWMGWLSAYSGNTIYAQKLQGRVTMTTDTSTTTAYMELRSLRSDDTAVYYCARDRIVVRPDYFDYWGQGTLVTVSS
VL 2: EIVLTQSPATLSLSPGERATLSCRASQSVSSYLAWYQQKPGQAPRLLIYDASNRATGIPARFSGSGSGTDFTLTISSLEPEDFAVYYCQQRSNWPRTFGQGTKVEIK
In the case of B1, the EC50 is reported as 0.24 mg/L.

Source: patent US20160168247A1 (published 2016)
